Measured values taken from paper doi:10.1101/2024.06.25.600556 (bioRxiv, 2024).

Target: the molecule itself
Assay: crystal structure

B1: Streptococcus pneumoniae pyruvate kinase (enzyme)
chain: MNKRVKIVATLGPAVEIRGGKKFGEDGYWGEKLDVEASAKNIAKLIEAGANTFRFNFSHGDHQEQGERMATVKLAEKIAGKKVGFLLDTKGPEIRTELFEGEAKEYSYKTGEKIRVATKQGIKSTREVIALNVAGALDIYDDVEVGRQVLVDDGKLGLRVVAKDDATREFEVEVENDGIIAKQKGVNIPNTKIPFPALAERDNDDIRFGLEQGINFIAISFVRTAKDVNEVRAICEETGNGHVQLFAKIENQQGIDNLDEIIEAADGIMIARGDMGIEVPFEMVPVYQKMIIKKVNAAGKVVITATNMLETMTEKPRATRSEVSDVFNAVIDGTDATMLSGESANGKYPLESVTTMATIDKNAQALLNEYGRLDSDSFERNSKTEVMASAVKDATSSMDIKLVVTLTKTGHTARLISKYRPNADILALTFDELTERGLMLNWGVIPMLTDAPSSTDDMFEIAERKAVEAGLVESGDDIVIVAGVPVGEAVRTNTMRIRTVR
stoichiometry N: 4
